Test results published in patent US20130164214A1.

Biological target: HLA-DR (human)
Assay: cell-based or functional assay

reduction of live mDC1 in human PBMCs after 3 days with antibody, flow cytometry: 59.2%
reduction of live mDC2 in human PBMCs after 3 days with antibody, flow cytometry: 85%
reduction of pDCs in human PBMCs, flow cytometry: 50%
B1: hL243γ4P (IMMU-114), humanized IgG4 anti-HLA-DR antibody (antibody, from a related filing, V domains shown)
VH: QVQLQQSGSELKKPGASVKVSCKASGFTFTNYGMNWVKQAPGQGLKWMGWINTYTREPTYADDFKGRFAFSLDTSVSTAYLQISSLKADDTAVYFCARDITAVVPTGFDYWGQGSLVTVSS
VL: DIQLTQSPSSLSASVGDRVTITCRASENIYSNLAWYRQKPGKAPKLLVFAASNLADGVPSRFSGSGSGTDYTFTISSLQPEDIATYYCQHFWTTPWAFGGGTKLQIKR
